Results: patent publication US7556950 (Takeda / Millennium, dated 2009)

Target: the molecule itself
Test: analytical size-exclusion chromatography; self-association (homodimer) of the purified catalytic domain

B1: recombinant catalytic domain of human phosphodiesterase 4-D3 (PDE4-D3), residues 253-580 of SEQ. ID No. 1, after removal of the N-terminal 6x-histidine tag … (enzyme)
chain: GAMDPTEQEDVLAKELEDVNKWGLHVFRIAELSGNRPLTVIMHTIFQERDLLKTFKIPVDTLITYLMTLEDHYHADVAYHNNIHAADVVQSTHVLLSTPALEAVFTDLEILAAIFASAIHDVDHPGVSNQFLINTNSELALMYNDSSVLENHHLAVGFKLLQEENCDIFQNLTKKQRQSLRKMVIDIVLATDMSKHMNLLADLKTMVETKKVTSSGVLLLDNYSDRIQVLQNMVHCADLSNPTKPLQLYRQWTDRIMEEFFRQGDRERERGMEISPMCDKHNASVEKSQVGFIDYIVHPLWETWADLVHPDAQDILDTLEDNREWYQSTIPQSP
notes: The limits 24-357 come from the claims, which define the protein of the Rolipram complex this way; The purified protein was buffer-exchanged with a 2-molar excess of the small molecule Rolipram; Expressed in Hi5 insect cells; also called PDE4D3 catalytic domain; purified PDE4-D3
binding result: binds
